# According to patent publication US20240279611A1, “EXOSOME PRODUCTION PROMOTING AGENT AND EXOSOME PRODUCTION PROMOTING METHOD” (FULLSTEM CO., LTD., priority 2021, published 2024):
# System: adipose-derived mesenchymal stem cells (ADSC)
# Assay: Amount of exosomes produced from ADSC, measured with Exo Counter (CD81 sandwich immunoassay) after excluding single factors
# Assay type: cell-based
# Settings: 48-hour culture in DMEM F12 on nonwoven fabric; one factor excluded from the eight factors of Table 1, compared with all eight added; CD81 on exosome surface detected in culture supernatant; FIG. 1
# Description: 4×10^4 adipose-derived mesenchymal stem cells (ADSC) were seeded in each well. A nonwoven fabric (3D, BioNOCII, CESCO BIOENGINEERING CO., LTD. in non-adhesive 24 well plate (PrimeSurface (registered trademark) Sumitomo Bakelite Co., Ltd.) was used for cell culture. A basal medium was 1.5 ml of 10% FBS/DMEM F12 (Sigma-Aldrich). The number of days of culture was 6. Starting from Day 2, 1.5 ml of medium was exchanged daily, and the amount of sugar consumed in the used culture medium was measured.
# Next, in the cell culture for 48 hours on Day 7 and Day 8, DMEM F12 was used as a medium so as to collect exosomes. In this 48-hour culture, 10% ExoFBS (Funakoshi Co., Ltd.) was added in Test #1. ExoFBS is a product from which bovine-derived exosomes are removed; therefore, influence on an exosome research is reduced.
# In Test #3 of the 48-hour culture, only factor A was excluded from the eight factors shown in Table 1, and the other factors were added. In Test #4 of the 48-hour culture, only factor B was excluded from the eight factors shown in Table 1, and the other factors were added. […]
# The amount of exosomes produced from ADSC was measured with Exo Counter (Kenwood), using 50 μl each from 1.5 ml of the collected culture supernatant. […] CD81 on the exosome surface was detected to quantify the exosome amount.
molecule,measurement,value
"SCGF (protein, UniProt Q9Y240 22-323, looked up, 29-kDa protein having no N-type sugar chain, belongs to a C-type lectin family) C-type lectin domain family …: ARGAEREWEGGWGGAQEEEREREALMLKHLQEALGLPAGRGDENPAGTVEGKEDWEMEEDQGEEEEEEATPTPSSGPSPSPTPEDIVTYILGRLAGLDAGLHQLHVRLHALDTRVVELTQGLRQLRNAAGDTRDAVQALQEAQGRAEREHGRLEGCLKGLRLGHKCFLLSRDFEAQAAAQARCTARGGSLAQPADRQQMEALTRYLRAALAPYNWPVWLGVHDRRAEGLYLFENGQRVSFFAWHRSPRPELGAQPSASPHPLSPDQPNGGTLENCVAQASDDGSWWDHDCQRRLYYVCEFPF",effect of the factor on the amount of exosomes produced,inhibits the production of exosomes
